Measured values taken from IntAct's records for PubMed 18511562.

B1: Charged multivesicular body protein 4a (Homo sapiens), Q9BY43 (parent)
chain: MSGLGRLFGKGKKEKGPTPEEAIQKLKETEKILIKKQEFLEQKIQQELQTAKKYGTKNKRAALQALRRKKRFEQQLAQTDGTLSTLEFQREAIENATTNAEVLRTMELAAQSMKKAYQDMDIDKVDELMTDITEQQEVAQQISDAISRPMGFGDDVDEDELLEELEELEQEELAQELLNVGDKEEEPSVKLPSVPSTHLPAGPAPKVDEDEEALKQLAEWVS

Variants of: B1
Conditions: with pdc6i_human PDCD6IP

Effect of a mutation on the interaction, disrupting interaction:
W220A
L217A
L214A
